{"source": "the DeepSol protein solubility set", "data": [{"assay": "soluble on expression in E. coli; label from the status in PepcDB or PDB records", "values": [{"sequence": "MTKKKVYNKRKRKEASIRVLEAIREKRKQQLAENARLEAEQAEQDVAPEPIDVQDPVINAGNIVEDAEPLNVNPSPPQPRKFNFRVANLEIARQAKISQNLMKTSETASTSSPVRQQVKTEIVPRVSQRTIVKTQALPRVNAPVLSSVPAKNPLPPKFVYINTAGLKRKRDDDKNTPSTSNSITLNPSSRGDQTQFIVHLQRTIERLEKEKAALTEKLTMREDEIKVFSVEFVNIQKENVKLMKENKAKESQISNQSIQVRNSWKFADLFKKELQKSRKDVSEVKWKIDKIEKKVGIKKPTPRKKPDVKLINPEDISLMSDRTQDGEDSSDFGSPLAKYLKPDQPSTSSACYGKPFYFESTSSSSRKPITASPGPPGRTQISDQLNTGEVRYVVNSGKPFNFSSESNSRNLKLIPGYIKRPEFRYIKPEGFTSASYKAQSEGMSSFLKTGSSATPENSKKSAHFDMPDISSTPYKSHVVVESDEMNSSSSTIGGFESEKKDNGALGSQKSPMPDIATALHNIFDSKEVQSSSSTTGSSAPPENSKKSDHFDMPDISSTLYRSRVEPISSSSSGSTSTSAPRYVPKPIAQPARYAIPSPGALNALRRPPEWKGQRRHAPSYVKSRESVTFRGCSRFPVTSPHFAKAHLEPVTDGKDDSKIVKYRFVPKRPDFDGEREHKK", "soluble on expression in E. coli": "not soluble"}, {"sequence": "MAHHHHHHGMTRTRSGSLAAGGLNWASLPLKLFAGGNAKFWHPADIDFTRDRADWEKLSDDERDYATRLCTQFIAGEEAVTEDIQPFMSAMRAEGRLADEMYLTQFAFEEAKHTQVFRMWLDAVGISEDLHRYLDDLPAYRQIFYAELPECLNALSADPSPAAQVRASVTYNHIVEGMLALTGYYAWHKICVERAILPGMQELVRRIGDDERRHMAWGTFTCRRHVAADDANWTVFETRMNELIPLALRLIEEGFALYGDQPPFDLSKDDFLQYSTDKGMRRFGTISNARGRPVAEIDVDYSPAQLEDTFADEDRRTLAAASA", "soluble on expression in E. coli": "soluble"}, {"sequence": "MGSDKIHHHHHHSCNEDDGAPYPSVRLEFLTAESGADGRLQTLVTDKGERLVVAEDRTESELLPNSSSRVVSNYEVLSSVGGRKEIRIYALANTVSPVPLPAGEFRNGLKFDPVDMLSIWMGRDYLNMTLSIRAQNARHTFHFIQESVERDAVTGKLKVHLMLYHDDGGDVEAYAKRAYVSVPLRQYTSDIGESVIIYFSFHTYDGEVQTYQFEYVPSHLTINY", "soluble on expression in E. coli": "not soluble"}, {"sequence": "MSVSSRGAASPAHRTAPTKWLFTKEEMKKTASIQEGMSREEELASRQMAAAFIQEMIDGLNNVKDPKMKIGHTGLCVAHTHMHRFYYLHSFKKYDYRDVGAACVFLAGKSQECPRKLSHVISVWRERKDRKQLTTETARNEAAQIIVLLESMILQTIAFDLNVHLPHIYVLDIMKKVDKKEHYRPLTSCAYYFATDVIAVTDWSLRYSAASMSIVIIHLMAAYANVRIERLFADFINEDSPWYAKFDETMTNEKLREMEVDFLVTYRNSCQFHHASKFNFREHRPMLENPDVRKLDRTRDARSHSPMVHHVPDSTVNVRPRAYVPRDELTVERLNKERGVEEERRKRERDRMAGKLDSSTSSEKRARIDPLANNFVSSSSSSNGKLAPPPIPPQLNFPPPPIVSSGYNHKNQINRKNHENNHTNSSVSPAFVPSARTFDVAPMLTPPTAPKLQSADNSDMDLEDGELE", "soluble on expression in E. coli": "not soluble"}, {"sequence": "MNIGIIGTGNMGNILIDAFLETRAVKPSCLTIINRTPAKAYHIKEKYPSVHIAKTIPEVIEQSQLIFICVKPIDIYPILKKYAEHFSDETCLVSITSPISPSQLETLVPCHVARIIPSITNRALSGASLFTFGDNCSEEWQQKLLRLFKNISTPLVIEEDITRVSSDIASCGPAFFSYLLQCFINAAVDKTNITHEEATTLVSEMVVGMGKLLEKEIFTLPTLQEKVCVKGGVTGEGIRVLEEHVGDMFHKLIERTHEKFDEDLECVDQQFNKHT", "soluble on expression in E. coli": "not soluble"}, {"sequence": "MSLTPDLLNFKKGWMSILDEPGEPPSPSLTTTSTSQWKKHWFVLTDSSLKYYRDSTAEEADELDGEIDLRSCTDVTEYAVQRNYGFQIHTKDAVYTLSAMTSGIRRNWIEALRKTVRPTSAPDVTEGHHHHHH", "soluble on expression in E. coli": "soluble"}, {"sequence": "MSLDNKRIEELKEVLKSLNKIGITEELRKEALDIVKNINPIELSIAEQQLIEEGMNPQDLRHLCDIHMEVLKDELTKVKASTSKGHVLYTLIEEHDKILDFLKELEEVNSNIQKTENYDEAKDETHRLYNLAESILDAENHHQREEKVLFLEMEKREITGPTRIMKMEHDDLRAKKKELKMLSKSVDTMDFREFKSKVDEVSKYIIFNLRDHIFKENYILYPSALEAIKDKDMWDDMKRRCDEVGYCSFTFSNEGHHHHHH", "soluble on expression in E. coli": "soluble"}, {"sequence": "MSLVEDGKATLGLRNFYINRNFTNPSNPQSKAEEWTQSFILDARSGFTEGPIGFGVDVLGLWSVKLDGGGGTYGTALLPRHDDGRPADDYGRLAVAGKARISKTELKIGEWMPVLPILRSDDGRSLPQTFRGGQVTSNEIAGLTLYGGQFRGNSPRNDASMEDMSYGGGVSDRFNFVGGEYKFNQDRTQVGLWNAVLKDVYQQQYLQLSHSQPVGDWTLGANLGYFHGDEDGSERAGQLDNKTYSGMFSAKYGGSTFWVGLQKVDGDTWMRVNGTSGGTLANDSYNSSFDNANERSWQVRHDFNFVTVGVPGLTLMNRYISGRDVHSGGVTDGKEWVRETELAYVIQSGAFKDLSVKWRNSSIRRDYSNNEFDENRLIFNYPLSLLEGHHHHHH", "soluble on expression in E. coli": "soluble"}, {"sequence": "MSYLDTATDLPNQTLFLEYLNIALSNARRHHAQVGVLLCQINNWSDLKRKRGDAVANAFLQEAGQKLKSNLRNGDIVSRWDKDEFIFLVSKVQDTSSLLGIAQRLMKPVLAPVTAGGRPFQPEITYGVALYPVDGEQVNDLIGHIRENLQQLLPQPTNPGSGLEHHHHHH", "soluble on expression in E. coli": "soluble"}, {"sequence": "MSLDIHCHILPEIDDGPSSLEESLVMAREAVKEGITKIIATPHHLHPSYNNKAAVVKEKVRKLNEAIQKENIPLEILPGQEVRISGDVMDGLVSGDILTLADQGKYLFVEFSSNHVSRYADKLFFQLLSQDIIPIIVHPERNHEFLKNPGLLYDLVNGGALTQITTSSLTGHLGKKIKKFTEQIIEADLTHFLASDAHNVTERTFRIREAFALVEKNYGSSKAYEFQENAELLVENQHVMGPPPQPIVKKKLLGIFEGHHHHHH", "soluble on expression in E. coli": "soluble"}, {"sequence": "MGSDKIHHHHHHMQRVRQICVVGGSGFVGSALVHRLSTAGYDVKVLTRRRESSKHLILLPNVQVTECDVFNEASLSGQLHGQDAVINLAGILHESGNATFESIHVDLATRIADICCKQGVPRLLHMSALKASADAKSAYLRSKAAGEQAVLRRADELQVTVFRPSVIFGRGDHFLSMLANVVNMMPVVAVAKPNAKFQPIWVEDVAYVFLTALENVSTYGRSIDLGGPQVYTLKQLIELTALLLGKKRRIVSLNDKLSYYQAYALELMPFKLMTRDNLLSMEVDSVCDGPISEFFGHSLASLEAIAPEYIAGETPRSAYERFRSLAGRTFSRR", "soluble on expression in E. coli": "not soluble"}, {"sequence": "MSLTSLVSAVGSHHVTTDPDVLAGRSVDHTGRYRGRASALVRPGSAEEVAEVLRVCRDAGAYVTVQGGRTSLVAGTVPEHDDVLLSTERLCVVSDVDTVERRIEIGAGVTLAAVQHAASTAGLVFGVDLSARDTATVGGMASTNAGGLRTVRYGNMGEQVVGLDVALPDGTVLRRHSRVRRDNTGYDLPALFVGAEGTLGVITALDLRLHPTPSHRVTAVCGFAELAALVDAGRMFRDVEGIAALELIDGRAAALTREHLGVRPPVEADWLLLVELAADHDQTDRLADLLGGARMCGEPAVGVDAAAQQRLWRTRESLAEVLGVYGPPLKFDVSLPLSAISGFARDAVALVHRHVPDSPEALPLLFGHIGEGNLHLNVLRCPPDREPALYAKMMGLIAECGGNVSSEHGVGSRKRAYLGMSRQANDVAAMRRVKAALDPTGYLNAAVLFDEGHHHHHH", "soluble on expression in E. coli": "not soluble"}, {"sequence": "MSLTEILIVEDDDIIATLIERFLLQREYVVCAKVATGEDALYKAAEHLPDLVLMDINLAGKIDGITATKFITAIFHIPVIFLSGQDDETTLERATMAEPASFIIKPFNAKDLYSNIEIALHNDREGHHHHHH", "soluble on expression in E. coli": "not soluble"}, {"sequence": "MGSDKIHHHHHHMRVSQRVVMSMTTPIDQFKGKQLDIINWWRRYPDKQTIIADGAVRSGKTFAMSISYVLWSMIVFDREQFGIAGKTIGSLRRNVIRPLKQTLQQVGFSVVDRRSENMLEISLDGRTNLYYLFGGKDESSQDLIQGITLAGMFFDEAALMPQSFVNQATARVSVTGGKYWFNMNPEGPYHWFKTDWIDQADDKRALRLHFVMTDNPSLSDEVIDRYEHMYSGVFYQRYILGQWVLADGIVYDNFDKDEMVSNPSQQPSRYYVSVDYGTQNPTVFLLWGKCGSVWYCLKEYYYDGRHSSRQKTDDEYARDFSQFVGDIRCEVIVDPSAASFIVKLRERRYRVIKADNDVLNGIRETQTAMNSGEIKFTPGLTNLFKEFASYVWDDKASQKGEDKVVKAHDHAMDAMRYFVMQVIKRRNAAHTFKNTSKYF", "soluble on expression in E. coli": "not soluble"}, {"sequence": "MTHNHHHQAVDNLLNVFSRASHDLTVVHSKLDKEFQQMYPANANPMKLIQRIKKLQEDVTLLKHQCLDLLSAKQDLIDKAQTTLVGNCNLIQKMNASLGESTNGDTDDALADFNQIIDEWTMQVRSRTVGETEDADKEDINKMLFSAICHTN", "soluble on expression in E. coli": "soluble"}, {"sequence": "MSDPLTAQEQHKRRQAVRELMPRTPFIGGLGIVFERYEPDDVVIRLPFRTDLTNDGTYFHGGVIASVMDTAGAAAAWSNHDFDRGTRAATVAMSIQYTGAAKRCDLLCHARTARRRKELTFTEITATDPDGNIVAHAVQTYRIV", "soluble on expression in E. coli": "not soluble"}, {"sequence": "MTMEALLTPNNNNVPTSPVQTTYTSTQRYCSAPNVDIGESKTNLIINYLPQGMTQEEVRSLFTSIGEIESCKLVRDKVTGQSLGYGFVNYVREEDALRAVSSFNGLRLQNKTIKVSYARPSNDQIKGSNLYVSGIPKSMTLHELESIFRPFGQIITSRILSDNVTGLSKGVGFVRFDKKDEADVAIKTLNGSIPSGCSEQITVKFANNPASNNPKGLLSDLEAVQQAATTLVPLSTILGAPTLRATAGGIGPMHHAPITSKYRYSPMGAITAVSQPTATLPADYLTTSALLQMSQLNALAGLNPFATATAVPDFTASLIAHQQQQHAVAQQHAAQTASPPATNGQVAGLAAHAQLSALSASVAATLPPSDTAGYCLFVYNLSSDTDDTLLWQLFSQFGAIVNVKILRDLTQQCKGYAFVSMSNYTEAYNAMLSLNGTNLAGKTLQVVFKSSTPYRA", "soluble on expression in E. coli": "not soluble"}, {"sequence": "MSLGNFHTMLDALLEDQEEAVLATIVQVEGSAYRKAGASMLFKKKGRRIGLLSGGCVEEDVFQRISALGDQLTSTLIPYDMRSEDDLSWGMGAGCNGIIHVHAERITQEKRRHYEKVRDCLHSGKAVTSVIKIESSHYLFLTENGHFGNWPDAPLQDIQRTVSTLHLPHFDQTTNMFIQRIEPKPRLILFGAGPDNVPLANLAADTGFSVIVTDWRPAYCTSSLFPKADQLITAFPEQMLSEFQFFPHDAAVVATHHYQHDQTIINFLFSQNLHYIGLLGSANRTKRLLSGKHPPSHFYSPVGLKIGAEGPEEIAVSVVAEIIQTRKRVAVVEGGSHHHHHH", "soluble on expression in E. coli": "soluble"}, {"sequence": "MSLRPGQVDNDVINLVAMLFEFILDDRHLHSVMKSLLGRLQIPILKVALTDKNFFNRGGHPARKLLNEMALAATGWTEKRPGQRDPLLDKISAVVNRILAEFSTDVSLFNELLDDFNQFSDLDQRRSDLVEQRLRDAEEGRARHEQATADTKELLHEAMDGRLLPEPVQDMLNGPWSHYLHWLALHESTDSEAWQRAKTLTEQLIWTIDPVPLTATTHELLQQAIPQVIEQLRGALEGVAWDGLSVEMVVRDLELVHLDVFQRLVIAPSEAAGNDHAQIDDSQEAPAVRADAVPSDTTNTSADVSHPAPALPVAADDPKEAVVARVPEPTRAQPVVAEEWLAKADGLRVGCWLELNRDGSQIRCKLAAFIRAVDKYIFVNRSGAKVAEYRRNELAEMMAQGHIEILDDGLIFDRALESIIDNLRTSRREGHHHHHH", "soluble on expression in E. coli": "soluble"}]}]}
